Assay results reported in patent US8633250B2, “Cell repair and regeneration by suramin and related polysulfonated napthylureas” (MUSC Foundation for Research Development, priority 2006, dated 2014).

Legend:
Assay type in all cases: cell-based, rabbit
[1] = test system: renal proximal tubule cells (RPTC); experiment: Cell cycle analysis by flow cytometry: number of RPTC in S-phase; details: 24 hr treatment, four days following plating; suramin 50 μM, EGF 10 ng/ml; untreated approximately 20%
Method: (§1) Isolation and culture of renal proximal tubules: Isolation and culture of renal proximal tubules were performed as described previously (Rodeheaver et al., 1990; Nowak and Schnellmann, 1995; Nowak and Schnellmann, 1996). Female New Zealand White rabbits (1.5-2.5 kg) were purchased from Myrtle's Rabbitry (Thompson Station, Tenn.). RPTC were isolated using the iron oxide perfusion method and grown in 6-well tissue culture dishes under improved conditions. The culture medium was an 1:1 mixture of DMEM/Ham's F-12 (without glucose, phenol red, or sodium pyruvate) supplemented with 15 mM HEPES buffer, 2.5 mM L-glutamine, 1 μM pyridoxine HCl, 15 mM sodium bicarbonate, and 6 mM lactate. Hydrocortisone (50 μM), selenium (5 ng/ml), human transferrin (5 μg/ml) bovine insulin (10 nM) and L-ascorbic acid-2-phosphate (50 μM) were added daily to fresh culture medium.
Isolated tubules were plated at 1 mg protein/well in a 6-well plate. On day 2, RPTC were incubated in the presence and absence of various pharmacological inhibitors for different time periods as indicated in the figure legends. […]
Cell cycle analysis: Cell cycle phase was determined using flow cytometry as previously described (Zhuang et al., 2004). Cells were harvested, stained with propidium iodide and the number of cells in S-phase of cell cycle determined.

EGF receptor = experiment: Immunoblot of EGF receptor phosphorylation (Tyr1068) in RPTC; details: 50 μM suramin, 10 ng/ml EGF or both for 10 min
Method: Preparation of cell lysates and immunoblot analysis: After different treatments, RPTC were washed twice with PBS and harvested in lysis buffer (0.25 M Tris-HCl, pH 6.8, 4% SDS, 10% glycerol, 1 mg/ml bromophenol blue, and 0.5% 2-mercaptoethanol). Cells were disrupted by sonication for 15 seconds and lysates stored at −20 °C. Equal amounts of cellular protein lysate were separated on 10% polyacrylamide gels and transferred to nitrocellulose membranes. After treatment with 5% skim milk at 4 °C overnight, membranes were incubated with various antibodies for 1 hr, and then incubated with an appropriate horseradish-peroxidase conjugated secondary antibody (Amersham, Piscataway, N.J.). Bound antibodies were visualized following chemiluminescence detection on autoradiographic film.
To determine whether suramin caused EGF receptor activation, we performed immunoblot analysis using an antibody against phosphorylated tyrosine 1068 of the EGF receptor. Total EGF receptor content was measured using immunoblot analysis and an antibody that recognizes the EGF receptor independent of its phosphorylation state to control for gel loading. […] Thus, suramin induced RPTC proliferation and scattering is not through the EGF receptor.

[2] = test system: renal proximal tubule cells (RPTC); experiment: RPTC outgrowth from plated renal proximal tubules (photographs); details: after 24 hr exposed for 24 hr, 50 μM suramin, 10 ng/ml EGF or suramin+EGF
Method: as §1
(§2) Isolated tubules were plated at 1 mg protein/well in a 6-well plate. On day 2, RPTC were incubated in the presence and absence of various pharmacological inhibitors for different time periods as indicated in the figure legends. For some experiments, suramin was added to RPTC on day 3 and then incubated for 24 hr in the presence or absence of various inhibitors before samples were taken.

[3] = test system: renal proximal tubule cells (RPTC); experiment: RPTC scattering, fibroblast-like morphology and lamellipodia (bright field, phalloidin staining); details: 50 μM suramin or 10 ng/ml EGF, 24 hr, phalloidin staining
Method: as §1, §2
Immunocytochemistry: After various treatments, RPTC were fixed with 10% buffered formalin, washed, permeabilized, and blocked with BSA. […]

- EGF receptor phosphorylation (tyrosine 1068) (EGF receptor): did observe phosphorylated EGF receptor
B1: EGF: Human recombinant EGF (epidermal growth factor) from R & D systems (protein, UniProt P01133 23-1207, looked up)
Pro-epidermal growth factor: PQHWSCPEGTLAGNGNSTCVGPAPFLIFSHGNSIFRIDTEGTNYEQLVVDAGVSVIMDFHYNEKRIYWVDLERQLLQRVFLNGSRQERVCNIEKNVSGMAINWINEEVIWSNQQEGIITVTDMKGNNSHILLSALKYPANVAVDPVERFIFWSSEVAGSLYRADLDGVGVKALLETSEKITAVSLDVLDKRLFWIQYNREGSNSLICSCDYDGGSVHISKHPTQHNLFAMSLFGDRIFYSTWKMKTIWIANKHTGKDMVRINLHSSFVPLGELKVVHPLAQPKAEDDTWEPEQKLCKLRKGNCSSTVCGQDLQSHLCMCAEGYALSRDRKYCEDVNECAFWNHGCTLGCKNTPGSYYCTCPVGFVLLPDGKRCHQLVSCPRNVSECSHDCVLTSEGPLCFCPEGSVLERDGKTCSGCSSPDNGGCSQLCVPLSPVSWECDCFPGYDLQLDEKSCAASGPQPFLLFANSQDIRHMHFDGTDYGTLLSQQMGMVYALDHDPVENKIYFAHTALKWIERANMDGSQRERLIEEGVDVPEGLAVDWIGRRFYWTDRGKSLIGRSDLNGKRSKIITKENISQPRGIAVHPMAKRLFWTDTGINPRIESSSLQGLGRLVIASSDLIWPSGITIDFLTDKLYWCDAKQSVIEMANLDGSKRRRLTQNDVGHPFAVAVFEDYVWFSDWAMPSVMRVNKRTGKDRVRLQGSMLKPSSLVVVHPLAKPGADPCLYQNGGCEHICKKRLGTAWCSCREGFMKASDGKTCLALDGHQLLAGGEVDLKNQVTPLDILSKTRVSEDNITESQHMLVAEIMVSDQDDCAPVGCSMYARCISEGEDATCQCLKGFAGDGKLCSDIDECEMGVPVCPPASSKCINTEGGYVCRCSEGYQGDGIHCLDIDECQLGEHSCGENASCTNTEGGYTCMCAGRLSEPGLICPDSTPPPHLREDDHHYSVRNSDSECPLSHDGYCLHDGVCMYIEALDKYACNCVVGYIGERCQYRDLKWWELRHAGHGQQQKVIVVAVCVVVLVMLLLLSLWGAHYYRTQKLLSKNPKNPYEESSRDVRSRRPADTEDGMSSCPQPWFVVIKEHQDLKNGGQPVAGEDGQAADGSMQPTSWRQEPQLCGMGTEQGCWIPVSSDKGSCPQVMERSFHMPSYGTQTLEGGVEKPHSLLSANPLWQQRALDPPHQMELTQ
modifications: Pro-epidermal growth factor
notes: Human recombinant EGF (epidermal growth factor) from R & D systems
- RPTC in S-phase [1]: 32%
- RPTC outgrowth [2]: promoted RPTC outgrowth
- formation of lamellipodia and intercellular contacts [3]: increased the formation of lamellipodia and decreased intercellular contacts
